Assay results from paper PMC9352680, “A comprehensive thermodynamic model for RNA binding by the Saccharomyces cerevisiae Pumilio protein PUF4”.
Substitutions are numbered along the chain they refer to. Numbers in names are those of the source.

T1: PUF4 RNA-binding domain (Saccharomyces cerevisiae, UniProt P25339 537-888)
T1 sequence: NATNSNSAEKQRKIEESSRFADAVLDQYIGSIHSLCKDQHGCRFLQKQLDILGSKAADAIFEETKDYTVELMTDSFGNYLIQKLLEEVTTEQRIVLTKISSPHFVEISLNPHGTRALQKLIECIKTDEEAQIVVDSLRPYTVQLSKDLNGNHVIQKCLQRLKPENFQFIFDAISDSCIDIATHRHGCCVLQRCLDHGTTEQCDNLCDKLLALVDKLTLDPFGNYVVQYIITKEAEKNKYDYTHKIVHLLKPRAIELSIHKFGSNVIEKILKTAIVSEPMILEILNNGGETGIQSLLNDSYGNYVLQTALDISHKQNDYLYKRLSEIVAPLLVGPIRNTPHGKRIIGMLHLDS

B1: Ic_S2_P5E.1_K5.1_C5.1_H5.1_A5.1_[T5A]_[A7C]_F5.1_[T8C]_[T9G]_[A10C]_T5.1 (ssRNA)
RNA: UUUGAUUAAUAUGAUAUCGUUCUUUCUUGUAAUCCGCUUCUUUCUCGAUAUCAUAUUAAUCUUU
B2: Ic_S2_P5E.1_K5.1_C5.1_H5.1_A5.1_[T5G]_[T6C]_F5.1_[T8C]_[A10T]_T5.1 (ssRNA)
RNA: B1 RNA with A32G, U33C, C34A, G36U, C37U
B3: Ic_S2_P5E.1_K5.1_C5.1_H5.1_A5.1_[T5C]_[A7C]_F5.1_[T8C]_[T9C]_[A10T]_T5.1 (ssRNA)
RNA: B1 RNA with A32C, G36C, C37U
B4: Ic_S2_P5E.1_K5.1_C5.1_H5.1_A5.1_[T5A]_[T6A]_[A7T]_F5.1_[T8A]_[T9C]_[A10G]_T5.1 (ssRNA)
RNA: B1 RNA with U33A, C34U, C35A, G36C, C37G
B5: Ic_S2_P5E.1_K5.1_C5.1_H5.1_A5.1_[T5G]_[T6C]_[A7T]_F5.1_[T8C]_[T9G]_[A10T]_T5.1 (ssRNA)
RNA: B1 RNA with A32G, U33C, C34U, C37U
B6: Ic_S2_P5E.1_K5.1_C5.1_H5.1_A5.1_[T6A]_[A7T]_F5.1_[T8C]_[T9A]_[A10G]_T5.1 (ssRNA)
RNA: B1 RNA with A32U, U33A, C34U, G36A, C37G
B7: Ic_S2_P5E.1_K5.1_C5.1_H5.1_A5.1_[T6A]_[A7T]_F5.1_[T8C]_[T9G]_[A10G]_T5.1 (ssRNA)
RNA: B1 RNA with A32U, U33A, C34U, C37G
B8: Ic_S2_P5E.1_K5.1_C5.1_H5.1_A5.1_[T6C]_[A7C]_F5.1_[T8C]_T5.1 (ssRNA)
RNA: B1 RNA with A32U, U33C, G36U, C37A
B9: Ic_S2_P5E.1_K5.1_C5.1_H5.1_A5.1_[T5C]_[T6A]_[A7G]_F5.1_[A10G]_T5.1 (ssRNA)
RNA: B1 RNA with A32C, U33A, C34G, C35U, G36U, C37G
B10: Ic_S2_P5E.1_K5.1_C5.1_H5.1_A5.1_[T5G]_[T6C]_[A7C]_F5.1_[T9C]_T5.1 (ssRNA)
RNA: B1 RNA with A32G, U33C, C35U, G36C, C37A
B11: Ic_S2_P5E.1_K5.1_C5.1_H5.1_A5.1_[T6A]_[A7T]_F5.1_[T8C]_[T9C]_[A10T]_T5.1 (ssRNA)
RNA: B1 RNA with A32U, U33A, C34U, G36C, C37U
B12: Ic_S2_P5E.1_K5.1_C5.1_H5.1_A5.1_[T5C]_[T6A]_[A7T]_F5.1_[T8C]_[T9G]_[A10G]_T5.1 (ssRNA)
RNA: B1 RNA with A32C, U33A, C34U, C37G
B13: Ic_S2_P5E.1_K5.1_C5.1_H5.1_A5.1_[T5C]_[A7C]_F5.1_[A10T]_T5.1 (ssRNA)
RNA: B1 RNA with A32C, C35U, G36U, C37U
B14: Ic_S2_P5E.1_K5.1_C5.1_H5.1_A5.1_[T6C]_F5.1_[T8A]_[A10G]_T5.1 (ssRNA)
RNA: B1 RNA with A32U, U33C, C34A, C35A, G36U, C37G
B15: Ic_S2_P5E.1_K5.1_C5.1_H5.1_A5.1_[T6C]_[A7C]_F5.1_[T9A]_[A10T]_T5.1 (ssRNA)
RNA: B1 RNA with A32U, U33C, C35U, G36A, C37U
B16: Ic_S2_P5E.1_K5.1_C5.1_H5.1_A5.1_[T6C]_[A7G]_F5.1_[T8C]_[T9C]_[A10T]_T5.1 (ssRNA)
RNA: B1 RNA with A32U, U33C, C34G, G36C, C37U
B17: Ic_S2_P5E.1_K5.1_C5.1_H5.1_A5.1_[T5C]_[T6A]_[A7G]_F5.1_[T9G]_[A10C]_T5.1 (ssRNA)
RNA: B1 RNA with A32C, U33A, C34G, C35U
B18: Ic_S2_P5E.1_K5.1_C5.1_H5.1_A5.1_[T5G]_[A7T]_F5.1_[T9A]_[A10T]_T5.1 (ssRNA)
RNA: B1 RNA with A32G, C34U, C35U, G36A, C37U
B19: Ic_S2_P5E.1_K5.1_C5.1_H5.1_A5.1_[T5C]_[T6A]_[A7T]_F5.1_[T8A]_[T9G]_[A10T]_T5.1 (ssRNA)
RNA: B1 RNA with A32C, U33A, C34U, C35A, C37U
B20: Ic_S2_P5E.1_K5.1_C5.1_H5.1_A5.1_[T5C]_[A7G]_F5.1_[T8G]_T5.1 (ssRNA)
RNA: B1 RNA with A32C, C34G, C35G, G36U, C37A
B21: Ic_S2_P5E.1_K5.1_C5.1_H5.1_A5.1_[T5A]_[T6C]_[A7T]_F5.1_[T8A]_[T9A]_T5.1 (ssRNA)
RNA: B1 RNA with U33C, C34U, C35A, G36A, C37A
B22: Ic_S2_P5E.1_K5.1_C5.1_H5.1_A5.1_[T5C]_[T6C]_[A7T]_F5.1_[T8A]_[A10T]_T5.1 (ssRNA)
RNA: B1 RNA with A32C, U33C, C34U, C35A, G36U, C37U
B23: Ic_S2_P5E.1_K5.1_C5.1_H5.1_A5.1_[T6C]_[A7T]_F5.1_[T9A]_[A10T]_T5.1 (ssRNA)
RNA: B1 RNA with A32U, U33C, C34U, C35U, G36A, C37U
B24: Ic_S2_P5E.1_K5.1_C5.1_H5.1_A5.1_[T5A]_[T6C]_F5.1_[T8C]_[T9C]_T5.1 (ssRNA)
RNA: B1 RNA with U33C, C34A, G36C, C37A
B25: Ic_S2_P5E.1_K5.1_C5.1_H5.1_A5.1_[T5A]_[A7C]_F5.1_[T9A]_T5.1 (ssRNA)
RNA: B1 RNA with C35U, G36A, C37A
B26: Ic_S2_P5E.1_K5.1_C5.1_H5.1_A5.1_[T5A]_[T6A]_F5.1_[T9C]_[A10T]_T5.1 (ssRNA)
RNA: B1 RNA with U33A, C34A, C35U, G36C, C37U
B27: Ib_S1_P4E.1_K4.1_C4.1_H4.1_[G2A]_A4.1_F4.1_[A9G]_T4.1 (ssRNA)
RNA: UCUCUUUAUAUAUUGUCUCUU
B28: Ib_S1_P4E.1_K4.1_C4.1_H4.1_[G2A]_A4.1_F4.1_[A9C]_T4.1 (ssRNA)
RNA: UCUCUUUAUAUAUUCUCUCUU
B29: Ib_S1_P4E.1_K4.1_C4.1_H4.1_[T1C]_A4.1_F4.1_[A9C]_T4.1 (ssRNA)
RNA: UCUCUUCGUAUAUUCUCUCUU

Biological target: T1, PUF4 RNA-binding domain
Test: Mg; RNA-MaP; 20 mM Na-HEPES pH 7.4, 30 mM KOAc, 0.75 mM MgCl2, 0.1% Tween-20, 5% glycerol, 0.1 mg/mL BSA, 2 mM DTT; 25 C; 0.0125-409.6 nM protein
Details: tags: N-His6-TEV cleaved; C-SNAP kept, Cy3B-labelled; label: tethered on chip by stalled RNA polymerase

Binder	Kd [nM]
B1	1200
B2	99.7
B3	104
B4	52
B5	275
B6	24.5
B7	49.1
B8	9.09
B9	9.39
B10	74.8
B11	10.3
B12	315
B13	8.52
B14	122
B15	1.14
B16	463
B17	9.13
B18	1.93
B19	5.17
B20	38.2
B21	129
B22	9.6
B23	1.53
B24	278
B25	8.11
B26	81.5
B27	334
B28	857
B29	1140
